Laboratory results taken from patent US20240366811A1, “RA[…] P[…] USES THEREOF” (TIANJIN CONJUSTAR BIOLOGICS CO., LTD., priority 2023, published 2024).
*1 amine or outer side, *2 acyl side, *3 side chain or, on linkers, in order; H or OH if unused. Where a SMILES comes first, the peptide text is derived from it. Bridges are numbered along the chain shown (N, C = ends). [ ]: non-standard residue; d: D form. The star is where a group is joined. TATA = O=C(CC[*:1])N1CN(C(=O)CC[*:2])CN(C(=O)CC[*:3])C1; NOTA = O=C(O)CN1CCN(CC(=O)O)CCN(CC(=O)*)CC1; Hyp = O=C(O)[C@@H]1C[C@@H](O)CN1; hArg = N=C(N)NCCCC[C@H](N)C(=O)O; Pen = CC(C)(S)[C@H](N)C(=O)O; βAla = NCCC(=O)O; Sar = CNCC(=O)O

Columns and labels:
in vivo [1] = conditions: mouse, iv, 11.1 MBq, total radioactivity; for tissue uptake at 4 h: dissected tissue, single iv 11.1 MBq
Description: In vivo radiobiological distribution assay: mice in the PET/CT imaging group were sacrificed immediately after the end of 4 h imaging, and mice in the inhibition group were sacrificed after 1 h imaging. Tissue samples of tumor, blood, heart, lung, liver, spleen, kidney, stomach, intestine, bone, muscle, and brain were collected by dissection, weighed and their radioactive counts were recorded. The probe uptake value in each tissue and organ of each experimental animal is expressed as radioactivity per gram of tissue as a percentage of the dose administered (% ID/g).

in vivo [2] = conditions: nude, mouse, iv, 11.1 MBq, total radioactivity
Description: The tissue distribution characteristics of the compounds in PC-3 tumor-bearing mice were studied by using the PC-3 tumor-bearing mice model, small animal PET/CT scans were performed at different time points after a single intravenous administration of the compounds, tumors and other regions of interest were delineated to obtain radioactive uptake values.
Tumor cells in the logarithmic growth phase were used for in vivo tumor inoculation. PC-3 cells were suspended in saline at a density of 5×10^6/mL, and a total of 15 nude mice were inoculated under the right flank at 0.1 mL per inoculation point. Imaging and biodistribution experiments were performed when tumors grew to 300-600 mm^3 (tumor volume measurement method: the long diameter and short diameter of the tumor were measured, and its volume calculation formula was: volume=0.5× major diameter× minor diameter^2). The drug was distributed according to the animal dose on the drug distribution table, and a certain volume of compound diluent was absorbed by a 1 mL insulin syringe, and the initial radioactive dose and initial dosimetry time were recorded. The injection time, residual radioactivity dose, and residual dose determination time were recorded after tail vein injection in tumor-bearing mice. […] PET/CT scans of animals were performed at different time points after administration. During the scanning process, the animals continued to inhale 1-2% isoflurane to maintain the anesthetic effect, and the scanning time was recorded. […] After the completion of PET/CT scanning, the images were reconstructed and the images and data were processed with the software of the device. The tumor, heart (including contents), kidney, intestine, and muscle were delineated as regions of interest. The percentage injection dose rate per gram of tissue in the area of interest (% ID/g) was obtained. The data of biological distribution was expressed as the percentage of radioactive count per gram of tissue or organ to the total dose (radioactive count) (% ID/g).
Data for each sampling point were expressed as the mean standard deviation (mean SD) of 3 tumor-bearing mice.

CC(C)C[C@@H]1NC(=O)[C@@H]2CSCCC(=O)N3CN(CN(C3)C(=O)CCSC(C)(C)[C@@H](C(N)=O)NC(=O)[C@H](CCCCNC(=N)N)NC(=O)[C@H](Cc3c[nH]c4ccccc34)NC(=O)[C@@H](CC(=O)O)NC(=O)[C@@H]3CCCN3C(=O)[C@H](Cc3c[nH]cn3)NC1=O)C(=O)CCSC[C@H](NC(=O)[C@@H]1CC(=O)NCCCC[C@H](NC(=O)CN(C)C(=O)CN(C)C(=O)CN(C)C(=O)CN(C)C(=O)CN(C)C(=O)CN(C)C(=O)CN(C)C(=O)CN(C)C(=O)CN(C)C(=O)CN(C)C(=O)CCNC(=O)CN3CCN(CC(=O)O)CCN(CC(=O)O)CC3)C(=O)N[C@@H](CCCCNC(=N)N)C(=O)N1)C(=O)N1C[C@H](O)C[C@H]1C(=O)N[C@@H](CC(C)C)C(=O)N[C@@H](C(C)C)C(=O)N[C@@H](CC(N)=O)C(=O)N1CCC[C@H]1C(=O)N[C@@H](CC(C)C)C(=O)N2 [Example 3] ({NOTA-βAla}-[Sar][Sar][Sar][Sar][Sar][Sar][Sar][Sar][Sar][Sar]K[hArg]DC[Hyp]LVNPLCLHP[dD]W[hArg][Pen]-NH2; lactam 11-13; linker 14-21-28 via TATA)
tissue uptake at 4 h (in vivo [1]; nude mice, heart, radioactive uptake: Heart, mouse S1): 0.31 %ID/g
tissue uptake at 4 h (in vivo [1]; nude mice, intestine, radioactive uptake: Intestine, Mean ± SD of S1-S3): 0.31 ± 0.1 %ID/g
tissue uptake at 4 h (in vivo [1]; nude mice, intestine, radioactive uptake: Intestine, mouse S1): 0.42 %ID/g
tissue uptake at 4 h (in vivo [1]; nude mice, intestine, radioactive uptake: Intestine, mouse S2): 0.29 %ID/g
tissue uptake at 4 h (in vivo [1]; nude mice, intestine, radioactive uptake: Intestine, mouse S3): 0.22 %ID/g
tissue uptake at 4 h (in vivo [1]; nude mice, muscle, radioactive uptake: Muscle, Mean ± SD of S1-S3): 0.5 ± 0.23 %ID/g
tissue uptake at 4 h (in vivo [1]; nude mice, muscle, radioactive uptake: Muscle, mouse S1): 0.46 %ID/g
tissue uptake at 4 h (in vivo [1]; nude mice, muscle, radioactive uptake: Muscle, mouse S2): 0.76 %ID/g
tissue uptake at 4 h (in vivo [1]; nude mice, muscle, radioactive uptake: Muscle, mouse S3): 0.3 %ID/g
tissue to tissue ratio at 4 h (in vivo [1]; nude mice, tumor and spleen): 7.2 ± 3
tissue to tissue ratio at 4 h (in vivo [1]; nude mice, tumor/blood): 21.9 ± 16.7
tissue to tissue ratio at 4 h (in vivo [1]; nude mice, tumor/bone): 4.23 ± 2.87
tissue to tissue ratio at 4 h (in vivo [1]; nude mice, tumor/brain): 58.8 ± 28.7
tissue to tissue ratio at 4 h (in vivo [1]; nude mice, tumor/intestine): 15.7 ± 10.3
tissue to tissue ratio at 4 h (in vivo [1]; nude mice, tumor/muscle): 11.3 ± 8.54
tissue to tissue ratio at 4 h (in vivo [1]; nude mice, tumor/stomach): 24 ± 9.97
tissue uptake at 4 h (in vivo [1]; nude, blood, radioactive uptake: Blood, Mean ± SD of S1-S3): 0.31 ± 0.22 %ID/g
tissue uptake at 4 h (in vivo [1]; nude, blood, radioactive uptake: Blood, mouse S1): 0.2 %ID/g
tissue uptake at 4 h (in vivo [1]; nude, blood, radioactive uptake: Blood, mouse S2): 0.56 %ID/g
tissue uptake at 4 h (in vivo [1]; nude, blood, radioactive uptake: Blood, mouse S3): 0.16 %ID/g
tissue uptake at 4 h (in vivo [1]; nude, bone, radioactive uptake: Bone, Mean ± SD of S1-S3): 1.23 ± 0.43 %ID/g
tissue uptake at 4 h (in vivo [1]; nude, bone, radioactive uptake: Bone, mouse S1): 1.15 %ID/g
tissue uptake at 4 h (in vivo [1]; nude, bone, radioactive uptake: Bone, mouse S2): 1.69 %ID/g
tissue uptake at 4 h (in vivo [1]; nude, bone, radioactive uptake: Bone, mouse S3): 0.84 %ID/g
tissue uptake at 4 h (in vivo [1]; nude, brain, radioactive uptake: Brain, Mean ± SD of S1-S3): 0.08 ± 0.03 %ID/g
tissue uptake at 4 h (in vivo [1]; nude, brain, radioactive uptake: Brain, mouse S1): 0.11 %ID/g
tissue uptake at 4 h (in vivo [1]; nude, brain, radioactive uptake: Brain, mouse S2): 0.05 %ID/g
tissue uptake at 4 h (in vivo [1]; nude, brain, radioactive uptake: Brain, mouse S3): 0.06 %ID/g
tissue uptake at 4 h (in vivo [1]; nude, heart, radioactive uptake: Heart, Mean ± SD of S1-S3): 0.26 ± 0.06 %ID/g
tissue uptake at 4 h (in vivo [1]; nude, heart, radioactive uptake: Heart, mouse S2): 0.29 %ID/g
tissue uptake at 4 h (in vivo [1]; nude, heart, radioactive uptake: Heart, mouse S3): 0.2 %ID/g
tissue uptake at 4 h (in vivo [1]; nude, kidney, radioactive uptake: Kidney, Mean ± SD of S1-S3): 57 ± 5.7 %ID/g
tissue uptake at 4 h (in vivo [1]; nude, kidney, radioactive uptake: Kidney, mouse S1): 62.7 %ID/g
tissue uptake at 4 h (in vivo [1]; nude, kidney, radioactive uptake: Kidney, mouse S2): 51.3 %ID/g
tissue uptake at 4 h (in vivo [1]; nude, kidney, radioactive uptake: Kidney, mouse S3): 57.1 %ID/g
tissue uptake at 4 h (in vivo [1]; nude, liver, radioactive uptake: Liver, Mean ± SD of S1-S3): 0.62 ± 0.11 %ID/g
tissue uptake at 4 h (in vivo [1]; nude, liver, radioactive uptake: Liver, mouse S1): 0.66 %ID/g
tissue uptake at 4 h (in vivo [1]; nude, liver, radioactive uptake: Liver, mouse S2): 0.5 %ID/g
tissue uptake at 4 h (in vivo [1]; nude, liver, radioactive uptake: Liver, mouse S3): 0.71 %ID/g
tissue uptake at 4 h (in vivo [1]; nude, lung, radioactive uptake: Lung, Mean ± SD of S1-S3): 0.42 ± 0.1 %ID/g
tissue uptake at 4 h (in vivo [1]; nude, lung, radioactive uptake: Lung, mouse S1): 0.49 %ID/g
tissue uptake at 4 h (in vivo [1]; nude, lung, radioactive uptake: Lung, mouse S2): 0.46 %ID/g
tissue uptake at 4 h (in vivo [1]; nude, lung, radioactive uptake: Lung, mouse S3): 0.31 %ID/g
tissue uptake at 4 h (in vivo [1]; nude, spleen, radioactive uptake: Spleen, Mean ± SD of S1-S3): 0.6 ± 0.06 %ID/g
tissue uptake at 4 h (in vivo [1]; nude, spleen, radioactive uptake: Spleen, mouse S1): 0.66 %ID/g
tissue uptake at 4 h (in vivo [1]; nude, spleen, radioactive uptake: Spleen, mouse S2): 0.54 %ID/g
tissue uptake at 4 h (in vivo [1]; nude, spleen, radioactive uptake: Spleen, mouse S3): 0.59 %ID/g
tissue uptake at 4 h (in vivo [1]; nude, stomach, radioactive uptake: Stomach, Mean ± SD of S1-S3): 0.18 ± 0.04 %ID/g
tissue uptake at 4 h (in vivo [1]; nude, stomach, radioactive uptake: Stomach, mouse S1): 0.22 %ID/g
tissue uptake at 4 h (in vivo [1]; nude, stomach, radioactive uptake: Stomach, mouse S2): 0.15 %ID/g
tissue uptake at 4 h (in vivo [1]; nude, stomach, radioactive uptake: Stomach, mouse S3): 0.17 %ID/g
tissue to tissue ratio at 4 h (in vivo [1]; nude, tumor and heart): 18 ± 11.4
tissue to tissue ratio at 4 h (in vivo [1]; nude, tumor and lung): 11.3 ± 7.18
tissue uptake at 4 h (in vivo [1]; nude, tumor, radioactive uptake: Tumor, Mean ± SD of S1-S3): 4.38 ± 1.94 %ID/g
tissue uptake at 4 h (in vivo [1]; nude, tumor, radioactive uptake: Tumor, mouse S1): 5.03 %ID/g
tissue uptake at 4 h (in vivo [1]; nude, tumor, radioactive uptake: Tumor, mouse S2): 2.19 %ID/g
tissue uptake at 4 h (in vivo [1]; nude, tumor, radioactive uptake: Tumor, mouse S3): 5.9 %ID/g
tissue uptake at 2 min (in vivo [2]; heart (including contents)): 3.35 ± 0.35 %ID/g
tissue uptake at 5 min (in vivo [2]; heart (including contents)): 2.95 ± 0.63 %ID/g
tissue uptake at 8 min (in vivo [2]; heart (including contents)): 2.59 ± 0.67 %ID/g
tissue uptake at 11 min (in vivo [2]; heart (including contents)): 2.18 ± 0.51 %ID/g
tissue uptake at 14 min (in vivo [2]; heart (including contents)): 1.86 ± 0.41 %ID/g
tissue uptake at 17 min (in vivo [2]; heart (including contents)): 1.65 ± 0.38 %ID/g
tissue uptake at 20 min (in vivo [2]; heart (including contents)): 1.51 ± 0.36 %ID/g
tissue uptake at 23 min (in vivo [2]; heart (including contents)): 1.41 ± 0.31 %ID/g
tissue uptake at 26 min (in vivo [2]; heart (including contents)): 1.28 ± 0.3 %ID/g
tissue uptake at 29 min (in vivo [2]; heart (including contents)): 1.18 ± 0.24 %ID/g
tissue uptake at 0.5 h (in vivo [2]; heart (including contents)): 1.21 ± 0.3 %ID/g
tissue uptake at 1 h (in vivo [2]; heart (including contents)): 0.65 ± 0.25 %ID/g
tissue uptake at 2 h (in vivo [2]; heart (including contents)): 0.15 ± 0.06 %ID/g
tissue uptake at 4 h (in vivo [2]; heart (including contents)): 0.06 ± 0.02 %ID/g
tissue uptake at 2 min (in vivo [2]; kidney): 15 ± 0.64 %ID/g
tissue uptake at 5 min (in vivo [2]; kidney): 14.6 ± 2.02 %ID/g
tissue uptake at 8 min (in vivo [2]; kidney): 14.9 ± 2.94 %ID/g
tissue uptake at 11 min (in vivo [2]; kidney): 15.2 ± 2.41 %ID/g
tissue uptake at 14 min (in vivo [2]; kidney): 15.1 ± 2.42 %ID/g
tissue uptake at 17 min (in vivo [2]; kidney): 14.4 ± 2.34 %ID/g
tissue uptake at 20 min (in vivo [2]; kidney): 14.4 ± 2.61 %ID/g
tissue uptake at 23 min (in vivo [2]; kidney): 13.9 ± 2.02 %ID/g
tissue uptake at 26 min (in vivo [2]; kidney): 12.5 ± 1.35 %ID/g
tissue uptake at 29 min (in vivo [2]; kidney): 11.5 ± 0.94 %ID/g
tissue uptake at 0.5 h (in vivo [2]; kidney): 11.6 ± 1.26 %ID/g
tissue uptake at 1 h (in vivo [2]; kidney): 9.68 ± 0.18 %ID/g
tissue uptake at 2 h (in vivo [2]; kidney): 8.82 ± 0.68 %ID/g
tissue uptake at 4 h (in vivo [2]; kidney): 8.03 ± 0.35 %ID/g
tissue uptake at 2 min (in vivo [2]; liver): 2.62 ± 0.25 %ID/g
tissue uptake at 5 min (in vivo [2]; liver): 2.22 ± 0.41 %ID/g
